Measured values reported in article PMC9352680, “A comprehensive thermodynamic model for RNA binding by the Saccharomyces cerevisiae Pumilio protein PUF4”.

T1: PUF4 RNA-binding domain (Saccharomyces cerevisiae, UniProt P25339 537-888)
T1 sequence: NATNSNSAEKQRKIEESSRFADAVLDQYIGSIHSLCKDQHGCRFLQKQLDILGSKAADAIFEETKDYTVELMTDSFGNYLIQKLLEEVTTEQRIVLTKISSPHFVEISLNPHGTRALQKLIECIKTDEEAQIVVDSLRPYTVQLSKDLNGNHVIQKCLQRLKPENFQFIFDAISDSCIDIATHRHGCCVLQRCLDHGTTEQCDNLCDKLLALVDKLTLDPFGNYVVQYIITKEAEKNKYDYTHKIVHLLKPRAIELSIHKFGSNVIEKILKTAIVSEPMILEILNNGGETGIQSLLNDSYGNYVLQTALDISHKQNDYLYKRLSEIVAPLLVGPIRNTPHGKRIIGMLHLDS


target: T1, PUF4 RNA-binding domain; assay: Mg; RNA-MaP; 20 mM Na-HEPES pH 7.4, 30 mM KOAc, 0.75 mM MgCl2, 0.1% Tween-20, 5% glycerol, 0.1 mg/mL BSA, 2 mM DTT; 25 C; 0.0125-409.6 nM protein; conditions: tags: N-His6-TEV cleaved; C-SNAP kept, Cy3B-labelled; label: tethered on chip by stalled RNA polymerase

Binder	Kd [nM]
UCUCUUUGUACGUAUCUCUU (ssRNA) [Ic_S1_P3E.1_K3.1_C3.1_H3.1_A3.1_[T5C]_[A6G]_F3.1_T3.1]	149
UCUCUUUGUACUUAUCUCUU (ssRNA) [Ic_S1_P3E.1_K3.1_C3.1_H3.1_A3.1_[T5C]_[A6T]_F3.1_T3.1]	66.4
Ic_S2_P4E.1_K4.1_C4.1_H4.1_A4.1_[T5C]_[T7A]_F4.1_[T8C]_[A9G]_T4.1 (ssRNA) RNA: UUUGAUUAAUAUGAUAUCGUUCUUUCUUGUACAACGUUCUUUCUCGAUAUCAUAUUAAUCUUU	55.1
Ic_S2_P4E.1_K4.1_C4.1_H4.1_A4.1_[T5A]_[A6T]_[T7C]_F4.1_[A9G]_T4.1 (ssRNA) RNA: UUUGAUUAAUAUGAUAUCGUUCUUUCUUGUAAUCUGUUCUUUCUCGAUAUCAUAUUAAUCUUU	24.7
Ic_S2_P4E.1_K4.1_C4.1_H4.1_A4.1_[T5A]_[A6T]_[T7G]_F4.1_T4.1 (ssRNA) RNA: UUUGAUUAAUAUGAUAUCGUUCUUUCUUGUAAUGUAUUCUUUCUCGAUAUCAUAUUAAUCUUU	8.85
Ic_S2_P4E.1_K4.1_C4.1_H4.1_A4.1_[T5A]_[A6T]_[T7A]_F4.1_[T8G]_[A9C]_T4.1 (ssRNA) RNA: UUUGAUUAAUAUGAUAUCGUUCUUUCUUGUAAUAGCUUCUUUCUCGAUAUCAUAUUAAUCUUU	1120
Ic_S2_P4E.1_K4.1_C4.1_H4.1_A4.1_[T5C]_F4.1_[T8C]_[A9G]_T4.1 (ssRNA) RNA: UUUGAUUAAUAUGAUAUCGUUCUUUCUUGUACAUCGUUCUUUCUCGAUAUCAUAUUAAUCUUU	22.3
Ic_S2_P4E.1_K4.1_C4.1_H4.1_A4.1_[T5A]_[A6C]_[T7C]_F4.1_[A9C]_T4.1 (ssRNA) RNA: UUUGAUUAAUAUGAUAUCGUUCUUUCUUGUAACCUCUUCUUUCUCGAUAUCAUAUUAAUCUUU	44.4
Ic_S2_P4E.1_K4.1_C4.1_H4.1_A4.1_[T5A]_[A6C]_[T7C]_F4.1_[T8C]_[A9G]_T4.1 (ssRNA) RNA: UUUGAUUAAUAUGAUAUCGUUCUUUCUUGUAACCCGUUCUUUCUCGAUAUCAUAUUAAUCUUU	742
Ic_S2_P4E.1_K4.1_C4.1_H4.1_A4.1_[T5A]_[A6C]_[T7C]_F4.1_[T8A]_[A9C]_T4.1 (ssRNA) RNA: UUUGAUUAAUAUGAUAUCGUUCUUUCUUGUAACCACUUCUUUCUCGAUAUCAUAUUAAUCUUU	1570
Ic_S2_P4E.1_K4.1_C4.1_H4.1_A4.1_[T5A]_[A6C]_F4.1_[T8G]_[A9G]_T4.1 (ssRNA) RNA: UUUGAUUAAUAUGAUAUCGUUCUUUCUUGUAACUGGUUCUUUCUCGAUAUCAUAUUAAUCUUU	701
Ic_S2_P4E.1_K4.1_C4.1_H4.1_A4.1_[T5A]_[A6T]_[T7C]_F4.1_[A9T]_T4.1 (ssRNA) RNA: UUUGAUUAAUAUGAUAUCGUUCUUUCUUGUAAUCUUUUCUUUCUCGAUAUCAUAUUAAUCUUU	22
Ic_S2_P4E.1_K4.1_C4.1_H4.1_A4.1_[T5A]_[A6C]_[T7A]_F4.1_[A9C]_T4.1 (ssRNA) RNA: UUUGAUUAAUAUGAUAUCGUUCUUUCUUGUAACAUCUUCUUUCUCGAUAUCAUAUUAAUCUUU	16
Ic_S2_P4E.1_K4.1_C4.1_H4.1_A4.1_[T5A]_[A6T]_[T7C]_F4.1_[T8A]_[A9G]_T4.1 (ssRNA) RNA: UUUGAUUAAUAUGAUAUCGUUCUUUCUUGUAAUCAGUUCUUUCUCGAUAUCAUAUUAAUCUUU	1430
Ic_S2_P4E.1_K4.1_C4.1_H4.1_A4.1_[T5A]_[A6T]_[T7C]_F4.1_T4.1 (ssRNA) RNA: UUUGAUUAAUAUGAUAUCGUUCUUUCUUGUAAUCUAUUCUUUCUCGAUAUCAUAUUAAUCUUU	2.23
Ic_S2_P4E.1_K4.1_C4.1_H4.1_A4.1_[T5A]_[A6T]_[T7C]_F4.1_[T8C]_[A9C]_T4.1 (ssRNA) RNA: UUUGAUUAAUAUGAUAUCGUUCUUUCUUGUAAUCCCUUCUUUCUCGAUAUCAUAUUAAUCUUU	454
Ic_S2_P4E.1_K4.1_C4.1_H4.1_A4.1_[T5A]_[A6C]_[T7A]_F4.1_[T8A]_[A9T]_T4.1 (ssRNA) RNA: UUUGAUUAAUAUGAUAUCGUUCUUUCUUGUAACAAUUUCUUUCUCGAUAUCAUAUUAAUCUUU	45.2
Ic_S2_P4E.1_K4.1_C4.1_H4.1_A4.1_[T5C]_F4.1_[T8A]_[A9C]_T4.1 (ssRNA) RNA: UUUGAUUAAUAUGAUAUCGUUCUUUCUUGUACAUACUUCUUUCUCGAUAUCAUAUUAAUCUUU	4.76
Ic_S2_P4E.1_K4.1_C4.1_H4.1_A4.1_[T5C]_F4.1_[T8C]_[A9C]_T4.1 (ssRNA) RNA: UUUGAUUAAUAUGAUAUCGUUCUUUCUUGUACAUCCUUCUUUCUCGAUAUCAUAUUAAUCUUU	12.3
Ic_S2_P4E.1_K4.1_C4.1_H4.1_A4.1_[T5A]_[A6T]_[T7A]_F4.1_[T8A]_[A9C]_T4.1 (ssRNA) RNA: UUUGAUUAAUAUGAUAUCGUUCUUUCUUGUAAUAACUUCUUUCUCGAUAUCAUAUUAAUCUUU	470
Ic_S2_P4E.1_K4.1_C4.1_H4.1_A4.1_[T5A]_[A6C]_[T7C]_F4.1_[T8C]_[A9C]_T4.1 (ssRNA) RNA: UUUGAUUAAUAUGAUAUCGUUCUUUCUUGUAACCCCUUCUUUCUCGAUAUCAUAUUAAUCUUU	582
Ic_S2_P4E.1_K4.1_C4.1_H4.1_A4.1_[T5A]_[A6C]_[T7G]_F4.1_[T8G]_[A9T]_T4.1 (ssRNA) RNA: UUUGAUUAAUAUGAUAUCGUUCUUUCUUGUAACGGUUUCUUUCUCGAUAUCAUAUUAAUCUUU	1410
Ic_S2_P4E.1_K4.1_C4.1_H4.1_A4.1_[T5C]_[T7A]_F4.1_[A9G]_T4.1 (ssRNA) RNA: UUUGAUUAAUAUGAUAUCGUUCUUUCUUGUACAAUGUUCUUUCUCGAUAUCAUAUUAAUCUUU	7.25
Ic_S2_P4E.1_K4.1_C4.1_H4.1_A4.1_[T5A]_[A6C]_[T7G]_F4.1_[T8C]_T4.1 (ssRNA) RNA: UUUGAUUAAUAUGAUAUCGUUCUUUCUUGUAACGCAUUCUUUCUCGAUAUCAUAUUAAUCUUU	747

Binder	Kd [nM]
Ic_S2_P4E.1_K4.1_C4.1_H4.1_A4.1_[T5A]_[A6T]_[T7C]_F4.1_[T8C]_[A9G]_T4.1 (ssRNA) RNA: UUUGAUUAAUAUGAUAUCGUUCUUUCUUGUAAUCCGUUCUUUCUCGAUAUCAUAUUAAUCUUU	648
Ic_S2_P4E.1_K4.1_C4.1_H4.1_A4.1_[T5A]_[A6C]_F4.1_[T8A]_[A9G]_T4.1 (ssRNA) RNA: UUUGAUUAAUAUGAUAUCGUUCUUUCUUGUAACUAGUUCUUUCUCGAUAUCAUAUUAAUCUUU	946
Ic_S2_P4E.1_K4.1_C4.1_H4.1_A4.1_[T5A]_[A6T]_[T7A]_F4.1_[T8C]_T4.1 (ssRNA) RNA: UUUGAUUAAUAUGAUAUCGUUCUUUCUUGUAAUACAUUCUUUCUCGAUAUCAUAUUAAUCUUU	558
Ic_S2_P4E.1_K4.1_C4.1_H4.1_A4.1_[T5A]_[A6T]_[T7G]_F4.1_[T8C]_[A9T]_T4.1 (ssRNA) RNA: UUUGAUUAAUAUGAUAUCGUUCUUUCUUGUAAUGCUUUCUUUCUCGAUAUCAUAUUAAUCUUU	518
Ic_S2_P4E.1_K4.1_C4.1_H4.1_A4.1_[T5A]_[A6T]_[T7G]_F4.1_[T8C]_[A9C]_T4.1 (ssRNA) RNA: UUUGAUUAAUAUGAUAUCGUUCUUUCUUGUAAUGCCUUCUUUCUCGAUAUCAUAUUAAUCUUU	1040
Ic_S2_P4E.1_K4.1_C4.1_H4.1_A4.1_[T5A]_[A6T]_[T7C]_F4.1_[T8C]_[A9T]_T4.1 (ssRNA) RNA: UUUGAUUAAUAUGAUAUCGUUCUUUCUUGUAAUCCUUUCUUUCUCGAUAUCAUAUUAAUCUUU	283
Ic_S2_P4E.1_K4.1_C4.1_H4.1_A4.1_[T5A]_[A6T]_[T7C]_F4.1_[T8A]_[A9T]_T4.1 (ssRNA) RNA: UUUGAUUAAUAUGAUAUCGUUCUUUCUUGUAAUCAUUUCUUUCUCGAUAUCAUAUUAAUCUUU	128
Ic_S2_P4E.1_K4.1_C4.1_H4.1_A4.1_[T5A]_[A6C]_[T7G]_F4.1_T4.1 (ssRNA) RNA: UUUGAUUAAUAUGAUAUCGUUCUUUCUUGUAACGUAUUCUUUCUCGAUAUCAUAUUAAUCUUU	11
Ic_S2_P4E.1_K4.1_C4.1_H4.1_A4.1_[T5A]_[A6T]_[T7C]_F4.1_[T8G]_[A9T]_T4.1 (ssRNA) RNA: UUUGAUUAAUAUGAUAUCGUUCUUUCUUGUAAUCGUUUCUUUCUCGAUAUCAUAUUAAUCUUU	335
Ic_S2_P4E.1_K4.1_C4.1_H4.1_A4.1_[T5A]_[A6C]_F4.1_[T8G]_[A9T]_T4.1 (ssRNA) RNA: UUUGAUUAAUAUGAUAUCGUUCUUUCUUGUAACUGUUUCUUUCUCGAUAUCAUAUUAAUCUUU	61.3
Ic_S2_P4E.1_K4.1_C4.1_H4.1_A4.1_[T5A]_[A6T]_[T7C]_F4.1_[T8G]_[A9C]_T4.1 (ssRNA) RNA: UUUGAUUAAUAUGAUAUCGUUCUUUCUUGUAAUCGCUUCUUUCUCGAUAUCAUAUUAAUCUUU	629
Ic_S2_P4E.1_K4.1_C4.1_H4.1_A4.1_[T5A]_[A6C]_F4.1_[T8C]_T4.1 (ssRNA) RNA: UUUGAUUAAUAUGAUAUCGUUCUUUCUUGUAACUCAUUCUUUCUCGAUAUCAUAUUAAUCUUU	324
Ic_S2_P4E.1_K4.1_C4.1_H4.1_A4.1_[T5A]_[A6C]_[T7G]_F4.1_[T8C]_[A9T]_T4.1 (ssRNA) RNA: UUUGAUUAAUAUGAUAUCGUUCUUUCUUGUAACGCUUUCUUUCUCGAUAUCAUAUUAAUCUUU	190
Ic_S2_P4E.1_K4.1_C4.1_H4.1_A4.1_[T5A]_[A6C]_[T7G]_F4.1_[T8C]_[A9C]_T4.1 (ssRNA) RNA: UUUGAUUAAUAUGAUAUCGUUCUUUCUUGUAACGCCUUCUUUCUCGAUAUCAUAUUAAUCUUU	851
Ic_S2_P4E.1_K4.1_C4.1_H4.1_A4.1_[T5C]_[T7A]_F4.1_[T8C]_[A9C]_T4.1 (ssRNA) RNA: UUUGAUUAAUAUGAUAUCGUUCUUUCUUGUACAACCUUCUUUCUCGAUAUCAUAUUAAUCUUU	87.7
Ic_S2_P4E.1_K4.1_C4.1_H4.1_A4.1_[T5C]_[T7A]_F4.1_[T8C]_T4.1 (ssRNA) RNA: UUUGAUUAAUAUGAUAUCGUUCUUUCUUGUACAACAUUCUUUCUCGAUAUCAUAUUAAUCUUU	17.4
Ic_S2_P4E.1_K4.1_C4.1_H4.1_A4.1_[T5A]_[A6T]_[T7C]_F4.1_[T8G]_[A9G]_T4.1 (ssRNA) RNA: UUUGAUUAAUAUGAUAUCGUUCUUUCUUGUAAUCGGUUCUUUCUCGAUAUCAUAUUAAUCUUU	1800
Ic_S2_P4E.1_K4.1_C4.1_H4.1_A4.1_[T5A]_[A6C]_[T7C]_F4.1_[T8C]_T4.1 (ssRNA) RNA: UUUGAUUAAUAUGAUAUCGUUCUUUCUUGUAACCCAUUCUUUCUCGAUAUCAUAUUAAUCUUU	666
Ic_S2_P4E.1_K4.1_C4.1_H4.1_A4.1_[T5A]_[A6C]_[T7C]_F4.1_[A9T]_T4.1 (ssRNA) RNA: UUUGAUUAAUAUGAUAUCGUUCUUUCUUGUAACCUUUUCUUUCUCGAUAUCAUAUUAAUCUUU	24.6
Ic_S2_P4E.1_K4.1_C4.1_H4.1_A4.1_[T5A]_[A6C]_[T7A]_F4.1_[T8G]_[A9C]_T4.1 (ssRNA) RNA: UUUGAUUAAUAUGAUAUCGUUCUUUCUUGUAACAGCUUCUUUCUCGAUAUCAUAUUAAUCUUU	777
UCUCUUUGUACCUAUCUCUU (ssRNA) [Ib_S1_P3E.1_K3.1_C3.1_H3.1_A3.1_[T5C]_[A6C]_F3.1_T3.1]	86.7
UCUCUUUGUAACUAUCUCUU (ssRNA) [Ic_S1_P3E.1_K3.1_C3.1_H3.1_A3.1_[T5A]_[A6C]_F3.1_T3.1]	271
UCUCUUUGUAAGUAUCUCUU (ssRNA) [Ic_S1_P3E.1_K3.1_C3.1_H3.1_A3.1_[T5A]_[A6G]_F3.1_T3.1]	1780
